Residue numbers refer to the chain shown, from its start.
Experiments:
Format in all cases: binding
[1] = test system: C.albicans Rad51; assay: Y2H assay RAD51/SEQ ID NO.: 5 pair; design: key: cells having the interaction would survive (+); cells not having the interaction would die (−) on selective media (−ADE, −HIS)
Description: (§1) RAD51-binding peptides were tested for ability to bind RAD51 of several different species using a “conventional” Y2H assay, where interaction between the two-hybrid pair drove expression of ADE2 and HIS genes.

[2] = biological target: T1, H.sapiens Rad51 (Homo sapiens, UniProt Q06609); assay: Y2H assay RAD51/SEQ ID NO.: 5 pair; design: key: cells having the interaction would survive (+); cells not having the interaction would die (−) on selective media (−ADE, −HIS)
T1 construct: expressed in transfected cells
T1 sequence (Q06609 1-339): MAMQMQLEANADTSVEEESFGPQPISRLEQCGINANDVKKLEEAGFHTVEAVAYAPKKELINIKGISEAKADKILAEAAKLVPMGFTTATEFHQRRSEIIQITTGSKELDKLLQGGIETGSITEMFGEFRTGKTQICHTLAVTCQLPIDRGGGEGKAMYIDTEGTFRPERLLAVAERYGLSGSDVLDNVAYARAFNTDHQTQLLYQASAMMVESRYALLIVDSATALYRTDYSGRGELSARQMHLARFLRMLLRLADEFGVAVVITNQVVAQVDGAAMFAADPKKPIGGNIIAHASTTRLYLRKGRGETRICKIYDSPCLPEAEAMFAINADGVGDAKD
Description: as §1

[3] = biological target: T2, Rad51 (S208E; A209D) (Homo sapiens, UniProt Q06609, A209D/S208E); assay: Y2H assay, human RAD51 mutants; design: key: (+) denotes a successful interaction between the two Y2H baits; (−) denotes a lack of interaction
T2 construct: expressed in transfected cells
T2 sequence (Q06609 1-339 S208E/A209D): T1 sequence (Q06609 1-339) with S208E, A209D
Description: (§2) The ability of peptides to bind human RAD51 with various mutations was then tested by Y2H assay. […] While mutations affecting BRCA2 binding had no effect on peptide binding, mutations that affected RAD51-AP1 binding did disrupt peptide binding. As these mutations were at residues 202, 205, and 206, they were consistent with the previous fusion data showing binding somewhere in the 190-218 region, and indicated the peptide SEQ ID NO.: 5 contacts at least residues 202, 205, and 206 of RAD51.

[4] = biological target: T3, Rad51 (F86E; A89E) (Homo sapiens, UniProt Q06609, A89E/F86E); assay: Y2H assay, human RAD51 mutants; design: key: (+) denotes a successful interaction between the two Y2H baits; (−) denotes a lack of interaction
T3 construct: expressed in transfected cells
T3 sequence (Q06609 1-339 F86E/A89E): T1 sequence (Q06609 1-339) with F86E, A89E
Description: as §2

[5] = biological target: T4, Rad51 (A190L; A192L) (Homo sapiens, UniProt Q06609, A190L/A192L); assay: Y2H assay, human RAD51 mutants; design: key: (+) denotes a successful interaction between the two Y2H baits; (−) denotes a lack of interaction
T4 construct: expressed in transfected cells
T4 sequence (Q06609 1-339 A190L/A192L): T1 sequence (Q06609 1-339) with A190L, A192L
Description: as §2

[6] = biological target: T5, Rad51 (S208L; A209E; M210A) (Homo sapiens, UniProt Q06609, A209E/M210A/S208L); assay: Y2H assay, human RAD51 mutants; design: key: (+) denotes a successful interaction between the two Y2H baits; (−) denotes a lack of interaction
T5 construct: expressed in transfected cells
T5 sequence (Q06609 1-339 S208L/A209E/M210A): T1 sequence (Q06609 1-339) with S208L, A209E, M210A
Description: as §2

[7] = biological target: T6, Rad51 (Q202R, Y205D, Q206A) (Homo sapiens, UniProt Q06609, Q202R/Q206A/Y205D); assay: Y2H assay, human RAD51 mutants; design: key: (+) denotes a successful interaction between the two Y2H baits; (−) denotes a lack of interaction
T6 construct: expressed in transfected cells
T6 sequence (Q06609 1-339 Q202R/Y205D/Q206A): T1 sequence (Q06609 1-339) with Q202R, Y205D, Q206A
Description: as §2

KRRRRRRRKRLGVRLRVSRML [SEQ ID NO.: 5]
Compound 5 Sequence Binding [1]: +
Compound 5 Sequence Binding [2]: +
Y2H interaction with SEQ ID NO.: 5 [3]: +
Y2H interaction with SEQ ID NO.: 5 [4]: +
Y2H interaction with SEQ ID NO.: 5 [5]: +
Y2H interaction with SEQ ID NO.: 5 [6]: +
Y2H interaction with SEQ ID NO.: 5 [7]: −
